Our source for the non-specific binding call values is the emibetuzumab library of Makowski et al. (2022).

B1: VH:VL chains; a variant is named by its letters at X, in order (parent)
chain 1: QVQLVQSGAEVKKPGASVKVSCKASGYTFTDYXMHWVRQAPGQGLEWMGXVNPNXXXTTYNQKFEGRVTMTTDTSTSTAYMELRSLRSDDTAVYYCARXNXLDXWGQGTTVTVSS
chain 2: DIQMTQSPSSLSASVGDRVTITCSVSSSVSSIYLHWYQQKPGKAPKLLIYSTSNLASGVPSRFSGSGSGTDFTLTISSLQPEDFATYYCQVYSGYPLTFGGGTKVEIK

Variants of B1 are the subject of this data set. Briefly: yeast display scFab, FACS + sequencing. An outline of the steps: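 Non-specific binding was called from deep sequencing of sorted yeast cells displaying a heavy-chain CDR mutant scFab library. Cells labelled with anti-Myc and biotinylated ovalbumin (260 μg/mL in PBSB, 3 h, room temperature) or soluble membrane proteins (130 μg/mL, 20 min on ice) were FACS-sorted, collecting the top 25% and bottom 10% of binders from two replicates. A sequence was positive when present in ≥3 of 4 pooled positive samples and absent from all negatives, and negative under the converse rule.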
As to VEGTGAGD, the non-specific binding call is given as “no binding”.
The value for VKGRASGF was “no binding”.
In the case of YGGRADVY it was “no binding”; in that of YRTRSSGA, “binds”.
In the case of YRRRGSLV it was “binds”.
As to SRGRGVGA, the non-specific binding call is “binds”.
The value for VTGTGAGV was “no binding”.
On to VKARGSGV, for which the non-specific binding call is on record as “binds”.
For the variant FATGSDGA, the non-specific binding call was “no binding”.
The value for YGGGGVAA was “binds”; that for YTTGGAAV was “no binding”.
For YRRRGFGD, the non-specific binding call is on record as “binds”.
Take YRGGDDSV: the non-specific binding call is on record as “no binding”.
As for YRKRGAAA, the non-specific binding call is on record as “binds”.
Turning to FKGEDAVA, the non-specific binding call was “no binding”.
Regarding YTAGSDWY, the non-specific binding call is recorded as “no binding”.
With DTGTGDVF, the non-specific binding call is on record as “no binding”.
Consider VGATSVSF, for which the non-specific binding call is “binds”.
In the case of YGARGAAF it was “binds”; in that of VRATGSVY, “binds”; in that of SKKRGAAA, “binds”.
In the case of YRRRGYGD, the non-specific binding call is on record as “binds”.
On to DRAGDDWY, for which the non-specific binding call is recorded as “no binding”.
The value for VAGTDDWV was “no binding”; that for VRTEDDWV was “no binding”.
For VATGDDGV, the non-specific binding call is given as “no binding”.
In the case of AGGGNDVV it was “no binding”.
AGGGNDVY: the non-specific binding call is listed as “no binding”.
With SAARDFWV, the non-specific binding call is recorded as “no binding”.
Regarding YRGGDSSY, the non-specific binding call was “no binding”.
On to YRGKSSWA, for which the non-specific binding call is recorded as “binds”.
As for AKATADVD, the non-specific binding call is recorded as “binds”.
The value for YRGRAAVS was “binds”; that for SEARSAAV was “no binding”.
On to VKGASDVA, for which the non-specific binding call is recorded as “no binding”.
Turning to FRGEGSVS, the non-specific binding call is “binds”.
Turning to VATGDDVA, the non-specific binding call is on record as “no binding”.
Consider YRRGSSVF, for which the non-specific binding call is listed as “binds”.
As for YRAGGAWY, the non-specific binding call was “binds”.
On to VTRGADAV, for which the non-specific binding call was “no binding”.
Take ARRRGAWY: the non-specific binding call was “binds”.
Consider FRAGGAGA, for which the non-specific binding call is reported as “binds”.
As for SRGRGAWF, the non-specific binding call was “binds”.
Take FRTADVGV: the non-specific binding call is on record as “binds”.
Regarding YEAGTAVA, the non-specific binding call was “no binding”.
As to FAKEGFWD, the non-specific binding call is reported as “binds”.
Consider FKARDSGD, for which the non-specific binding call is given as “binds”.
DEGRSVAA: the non-specific binding call was “binds”.
The value for FREKDSAD was “no binding”; that for YRAKGALS was “binds”.
On to YRAKGALF, for which the non-specific binding call was “binds”.
On to YTGGADAV, for which the non-specific binding call is “no binding”.
On to VRGGGAWV, for which the non-specific binding call is “binds”.
As to VTEGGDVY, the non-specific binding call is recorded as “no binding”.
As for FRKGGSGD, the non-specific binding call is “binds”.
In the case of FRAGGAWS, the non-specific binding call was “binds”.
Consider YTGATAGA, for which the non-specific binding call was “binds”.
Take YTEETDGF: the non-specific binding call is on record as “binds”.
With YRRGGFVV, the non-specific binding call is “binds”.
Turning to SAGRGVGS, the non-specific binding call is on record as “binds”.
In the case of VAGTGSLD it was “no binding”.
For YRGRGFAS, the non-specific binding call was “binds”.
Consider DAEATSWV, for which the non-specific binding call is on record as “no binding”.
Regarding YETETALY, the non-specific binding call is reported as “no binding”.
Consider VRGKGAVD, for which the non-specific binding call is listed as “binds”.
The value for YATGGYAV was “no binding”; that for FRGRGSAF was “binds”; that for YKRRNSGD was “binds”.
In the case of YRRGGSAV it was “binds”; in that of DKEGGFGV, “no binding”.
For the variant VAGTGDGA, the non-specific binding call is given as “no binding”.
As for YRRGSSSV, the non-specific binding call is “binds”.
In the case of YGAAGSAA it was “binds”.
With YRRRGFAA, the non-specific binding call is given as “binds”.
For the variant YAEESAGD, the non-specific binding call is reported as “no binding”.
With FAGGGDGA, the non-specific binding call is “no binding”.
As to FAAGGAAS, the non-specific binding call is recorded as “binds”.
Take DKTGDDVF: the non-specific binding call is “no binding”.
Take YKGEGDLA: the non-specific binding call is listed as “no binding”.
As to AKGEDSVF, the non-specific binding call was “no binding”.
As for YRGRASGA, the non-specific binding call is listed as “binds”.
For VKGGAAVY, the non-specific binding call is listed as “no binding”.
As to STGTGALA, the non-specific binding call was “no binding”.
Regarding YAGEASAV, the non-specific binding call was “no binding”.
As for YEKGGAWS, the non-specific binding call is on record as “binds”.
Take FRGTSFGD chain 1 T58I: the non-specific binding call is “binds”.
On to YKGEGDVV, for which the non-specific binding call is “no binding”.
Regarding YRGRGFLV, the non-specific binding call is “binds”.
For the variant VTTKSAAV, the non-specific binding call is reported as “no binding”.
The value for DKEGGSLD was “no binding”; that for YREEGDVF was “no binding”; that for VKGKDVGY was “binds”.
As to YKRGSSVS, the non-specific binding call is “binds”.
Turning to DRRGDSSA, the non-specific binding call was “no binding”.
In the case of VTTKSSAV, the non-specific binding call is “no binding”.
On to SKGRSDGA, for which the non-specific binding call is on record as “no binding”.
In the case of YAKGDDAS it was “no binding”; in that of FRGKADVD, “binds”.
In the case of YRGRSSLY it was “binds”.
In the case of YRGRDVGY, the non-specific binding call is reported as “binds”.
In the case of YATKGAWA it was “binds”.
Regarding YTGTSAGD, the non-specific binding call was “no binding”.
As to YKGRGYGD, the non-specific binding call is given as “binds”.
For the variant YRGAAASS, the non-specific binding call is given as “no binding”.
FRGTGSWA: the non-specific binding call is recorded as “binds”.
In the case of YRAGGVVA it was “binds”; in that of VKRGSFVD, “binds”; in that of YRAGGYVA, “binds”.
As for YRGEGASD, the non-specific binding call is reported as “binds”.
In the case of FRRRGSLY it was “binds”.
For the variant ARAGDAVV, the non-specific binding call is reported as “no binding”.
DRAGDDLY: the non-specific binding call is listed as “no binding”.
With VTEEGSWV, the non-specific binding call was “no binding”.
Take YAARAAVD: the non-specific binding call was “binds”.
Turning to FRGRGYVA, the non-specific binding call is reported as “binds”.
The value for FRGRGYVV was “binds”; that for FKRGSSSY was “binds”; that for YKKGGSGV was “binds”.
Regarding YRKRGSVV, the non-specific binding call is “binds”.
